System: Elk-1 transcriptional activity
Assay: GAL4 luciferase reporter assay in CHO cells: GAL4-Elk-1
Format: cell-based, Chinese hamster
Conditions: FIG. 4B
Procedure: In these experiments, CHO cells were cotransfected with constructs encoding the transcription factors and JIP-1 using previously described methods. Dérijard et al., supra; Sluss et al., supra; Gupta et al., supra. A luciferase reporter plasmid was used to monitor the expression of the transcription factors. Transfection efficiency was determined using a β-galactosidase expression vector. Constructs used in these experiments included GAL4 fusions with the c-myc, Sp1 and VP16 activation domains (described in Whitmarsh et al., Science, 269:403 (1995); Davis, Science, 269:403 (1995); Gille et al., Curr. Biol., 5:1191 (1995)). […]
Transfected cells were activated by treatment with 10% (v/v) fetal calf serum, and luciferase and β-galactosidase activities were measured in cell lysates at 48 hours post-transfection. The data are presented as the ratio of luciferase activity (light units) to β-galactosidase activity (OD units) measured in the cell extracts (mean±SEM (n=3)), and are normalized to the luciferase activity detected in the absence of JBD (FIGS. 4A and 4B) or ATF2 (FIG. 4C).

B1: JIP-1: 660 amino acid murine cytoplasmic protein that specifically binds JNK (protein)
chain: MAERESGLGGGAASPPAASPFLGLHIASPPNFRLTHDISLEEFEDEDLSEITDECGISLQCKDTLSLRPPRAGLLSAGSSGSAGSRLQAEMLQMDLIDAAGDTPGAEDDEEEEDDELAAQRPGVGPPKAESNQDPAPRSQGQGPGTGSGDTYRPKRPTTLNLFPQVPRSQDTLNNNSLGKKHSWQDRVSRSSSPLKTGEQTPPHEHICLSDELPPQGSPVPTQDRGTSTDSPCRRSAATQMAPPSGPPATAPGGRGHSHRDRIHYQADVRLEATEEIYLTPVQRPPDPAEPTSTFMPPTESRMSVSSDPDPAAYSVTAGRPHPSISEEDEGFDCLSSPERAEPPGGGWRGSLGEPPPPPRASLSSDTSALSYDSVKYTLVVDEHAQLELVSLRPCFGDYSDESDSATVYDNCASASSPYESAIGEEYEEAPQPRPPTCLSEDSTPDEPDVHFSKKFLNVFMSGRSRSSSAESFGLFSCVINGEEHEQTHRAIFRFVPRHEDELELEVDDPLLVELQAEDYWYEAYNMRTGARGVFPAYYAIEVTKEPEHMAALAKNSCVLEISVRGVKIGVKADDALEAKGNKCSHFFQLKNISFCGYHPKNNKYFGFITKHPADHRFACHVFVSEDSTKALAESVGRAFQQFYKQFVEYTCPTEDIYLE
B1 was tested, and the “basal transcriptional activity of Elk-1 mutated at JNK phosphorylation sites” value (GAL4-Elk-1 (S383A)) was “not markedly inhibited” and the Elk-1 transcriptional activity (wild type GAL4-Elk-1, CHO cells) was “partial inhibition”.
